Laboratory results taken from patent publication US20220235126A1.
One block for each substance: values may come before it.

What was measured:
human FcRn-mmh (human) = human FcRn-mmh (human) (UniProt P55899); experiment: SPR, hFcRn.mmh captured, 25 C, pH 7.4; kinetics inconclusive
[1] = target: hTSLPR and hIL-7R on Baf3 cells (human) (UniProt Q9HC73)
[2] = target: hTSLPR and hIL-7R on Baf3 cells (human) (UniProt Q9HC73); remark: listed apart in the source
[3] = target: hTSLPR and hIL-7R on Baf3 cells (human) (UniProt Q9HC73); experiment: cell-based or functional assay

Chain of UniProt Q9HC73 (Q9HC73 23-371, chain 1 of 2): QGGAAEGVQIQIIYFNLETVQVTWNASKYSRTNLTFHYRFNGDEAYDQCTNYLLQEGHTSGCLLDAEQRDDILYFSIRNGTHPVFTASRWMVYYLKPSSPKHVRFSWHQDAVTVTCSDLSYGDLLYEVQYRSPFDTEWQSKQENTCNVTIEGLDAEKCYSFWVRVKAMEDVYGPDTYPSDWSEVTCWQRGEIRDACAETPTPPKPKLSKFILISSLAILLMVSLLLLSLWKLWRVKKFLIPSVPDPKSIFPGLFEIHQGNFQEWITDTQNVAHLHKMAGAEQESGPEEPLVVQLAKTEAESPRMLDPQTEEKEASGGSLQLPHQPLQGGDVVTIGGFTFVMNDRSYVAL
Chain of UniProt Q9HC73 (P16871 21-459, chain 2 of 2, further chain): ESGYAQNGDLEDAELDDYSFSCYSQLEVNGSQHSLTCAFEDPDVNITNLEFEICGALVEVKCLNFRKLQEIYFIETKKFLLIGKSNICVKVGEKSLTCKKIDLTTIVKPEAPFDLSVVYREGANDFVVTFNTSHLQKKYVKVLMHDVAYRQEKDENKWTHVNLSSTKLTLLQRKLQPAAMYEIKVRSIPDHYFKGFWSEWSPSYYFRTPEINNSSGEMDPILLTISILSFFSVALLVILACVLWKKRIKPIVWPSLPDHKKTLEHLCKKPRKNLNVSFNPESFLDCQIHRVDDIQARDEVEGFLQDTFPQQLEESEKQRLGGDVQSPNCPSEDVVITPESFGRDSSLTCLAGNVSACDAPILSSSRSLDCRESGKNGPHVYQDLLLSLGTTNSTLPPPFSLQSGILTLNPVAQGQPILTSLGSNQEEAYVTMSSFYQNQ
Chain of UniProt P55899 (P55899 24-297): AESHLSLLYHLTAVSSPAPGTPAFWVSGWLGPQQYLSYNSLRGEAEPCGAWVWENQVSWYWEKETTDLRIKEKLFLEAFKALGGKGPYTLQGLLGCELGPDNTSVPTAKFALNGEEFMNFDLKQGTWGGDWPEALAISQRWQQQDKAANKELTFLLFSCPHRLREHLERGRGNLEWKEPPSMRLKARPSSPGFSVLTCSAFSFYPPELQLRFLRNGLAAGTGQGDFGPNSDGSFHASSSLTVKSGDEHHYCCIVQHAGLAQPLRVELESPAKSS

5 uM mAb Bound (RU) (human FcRn-mmh (human)): 9.1 RU
Substance: REGN1932, anti-FelD1 IgG1 isotype control (antibody)

5 uM mAb Bound (RU) (human FcRn-mmh (human)): 8 RU
Substance: REGN1945, anti-fel d 1 IgG4 isotype control (antibody)

EC50, STAT3-luciferase dose response of hTSLP mmh in BAF3/hIL7R/hTSLPR/Stat3-Luc cells [1]: 61.3 pM | EC50 of hTSLP mmh in the Stat3-Luc reporter assay (number only, curve not drawn) [2]: 75 pM
Substance: REGN4009, recombinant hTSLP.mmh (from UniProt Q969D9 29-159) (ligand)

hTSLP EC50 [M], STAT3-Luciferase reporter assay [3]: 4.35e-11 M
Substance: human TSLP (hTSLP) (from UniProt Q969D9 29-159) (ligand)
